B1: NOLC1 (protein, UniProt Q14978 1-699, looked up)
Nucleolar and coiled-body …: MADAGIRRVVPSDLYPLVLGFLRDNQLSEVANKFAKATGATQQDANASSLLDIYSFWLKSAKVPERKLQANGPVAKKAKKKASSSDSEDSSEEEEEVQGPPAKKAAVPAKRVGLPPGKAAAKASESSSSEESSDDDDEEDQKKQPVQKGVKPQAKAAKAPPKKAKSSDSDSDSSSEDEPPKNQKPKITPVTVKAQTKAPPKPARAAPKIANGKAASSSSSSSSSSSSDDSEEEKAAATPKKTVPKKQVVAKAPVKAATTPTRKSSSSEDSSSDEEEEQKKPMKNKPGPYSSVPPPSAPPPKKSLGTQPPKKAVEKQQPVESSEDSSDESDSSSEEEKKPPTKAVVSKATTKPPPAKKAAESSSDSSDSDSSEDDEAPSKPAGTTKNSSNKPAVTTKSPAVKPAAAPKQPVGGGQKLLTRKADSSSSEEESSSSEEEKTKKMVATTKPKATAKAALSLPAKQAPQGSRDSSSDSDSSSSEEEEEKTSKSAVKKKPQKVAGGAAPSKPASAKKGKAESSNSSSSDDSSEEEEEKLKGKGSPRPQAPKANGTSALTAQNGKAAKNSEEEEEEKKKAAVVVSKSGSLKKRKQNEAAKEAETPQAKKIKLQTPNTFPKRKKGEKRASSPFRRVREEEIEVDSRVADNSFDAKRGAAGDWGERANQVLKFTKGKSFRHEKTKKKRGSYRGGSISVQVNSIKFDSE
B2: KRT18 (protein, UniProt P05783 2-430, looked up)
Keratin, type I cytoskeletal …: SFTTRSTFSTNYRSLGSVQAPSYGARPVSSAASVYAGAGGSGSRISVSRSTSFRGGMGSGGLATGIAGGLAGMGGIQNEKETMQSLNDRLASYLDRVRSLETENRRLESKIREHLEKKGPQVRDWSHYFKIIEDLRAQIFANTVDNARIVLQIDNARLAADDFRVKYETELAMRQSVENDIHGLRKVIDDTNITRLQLETEIEALKEELLFMKKNHEEEVKGLQAQIASSGLTVEVDAPKSQDLAKIMADIRAQYDELARKNREELDKYWSQQIEESTTVVTTQSAEVGAAETTLTELRRTVQSLEIDLDSMRNLKASLENSLREVEARYALQMEQLNGILLHLESELAQTRAEGQRQAQEYEALLNIKVKLEAEIATYRRLLEDGEDFNLGDALDSSNSMQTIQKTTTRRIVDGKVVSETNDTKVLRH
B3: CDC42EP1 (protein, UniProt Q00587 1-391, looked up)
Cdc42 effector protein 1: MPGPQGGRGAATMSLGKLSPVGWVSSSQGKRRLTADMISHPLGDFRHTMHVGRGGDVFGDTSFLSNHGGSSGSTHRSPRSFLAKKLQLVRRVGAPPRRMASPPAPSPAPPAISPIIKNAISLPQLNQAAYDSLVVGKLSFDSSPTSSTDGHSSYGLDSGFCTISRLPRSEKPHDRDRDGSFPSEPGLRRSDSLLSFRLDLDLGPSLLSELLGVMSLPEAPAAETPAPAANPPAPTANPTGPAANPPATTANPPAPAANPSAPAATPTGPAANPPAPAASSTPHGHCPNGVTAGLGPVAEVKSSPVGGGPRGPAGPALGRHWGAGWDGGHHYPEMDARQERVEVLPQARASWESLDEEWRAPQAGSRTPVPSTVQANTFEFADAEEDDEVKV
B4: YWHAH (protein, UniProt Q04917 2-246, looked up)
14-3-3 protein eta: GDREQLLQRARLAEQAERYDDMASAMKAVTELNEPLSNEDRNLLSVAYKNVVGARRSSWRVISSIEQKTMADGNEKKLEKVKAYREKIEKELETVCNDVLSLLDKFLIKNCNDFQYESKVFYLKMKGDYYRYLAEVASGEKKNSVVEASEAAYKEAFEISKEQMQPTHPIRLGLALNFSVFYYEIQNAPEQACLLAKQAFDDAIAELDTLNEDSYKDSTLIMQLLRDNLTLWTSDQQDEEAGEGN
B5: NOP56 (protein, UniProt O00567 1-594, looked up)
Nucleolar protein 56: MVLLHVLFEHAVGYALLALKEVEEISLLQPQVEESVLNLGKFHSIVRLVAFCPFASSQVALENANAVSEGVVHEDLRLLLETHLPSKKKKVLLGVGDPKIGAAIQEELGYNCQTGGVIAEILRGVRLHFHNLVKGLTDLSACKAQLGLGHSYSRAKVKFNVNRVDNMIIQSISLLDQLDKDINTFSMRVREWYGYHFPELVKIINDNATYCRLAQFIGNRRELNEDKLEKLEELTMDGAKAKAILDASRSSMGMDISAIDLINIESFSSRVVSLSEYRQSLHTYLRSKMSQVAPSLSALIGEAVGARLIAHAGSLTNLAKYPASTVQILGAEKALFRALKTRGNTPKYGLIFHSTFIGRAAAKNKGRISRYLANKCSIASRIDCFSEVPTSVFGEKLREQVEERLSFYETGEIPRKNLDVMKEAMVQAEEAAAEITRKLEKQEKKRLKKEKKRLAALALASSENSSSTPEECEEMSEKPKKKKKQKPQEVPQENGMEDPSISFSKPKKKKSFSKEELMSSDLEETAGSTSIPKRKKSTPKEETVNDPEEAGHRSGSKKKRKFSKEEPVSSGPEEAVGKSSSKKKKKFHKASQED
B6: FLII (protein, UniProt Q13045 1-1269, looked up)
Protein flightless-1 homolog: MEATGVLPFVRGVDLSGNDFKGGYFPENVKAMTSLRWLKLNRTGLCYLPEELAALQKLEHLSVSHNNLTTLHGELSSLPSLRAIVARANSLKNSGVPDDIFKLDDLSVLDLSHNQLTECPRELENAKNMLVLNLSHNSIDTIPNQLFINLTDLLYLDLSENRLESLPPQMRRLVHLQTLVLNGNPLLHAQLRQLPAMTALQTLHLRSTQRTQSNLPTSLEGLSNLADVDLSCNDLTRVPECLYTLPSLRRLNLSSNQITELSLCIDQWVHVETLNLSRNQLTSLPSAICKLSKLKKLYLNSNKLDFDGLPSGIGKLTNLEEFMAANNNLELVPESLCRCPKLRKLVLNKNHLVTLPEAIHFLTEIEVLDVRENPNLVMPPKPADRAAEWYNIDFSLQNQLRLAGASPATVAAAAAAGSGPKDPMARKMRLRRRKDSAQDDQAKQVLKGMSDVAQEKNKKQEESADARAPSGKVRRWDQGLEKPRLDYSEFFTEDVGQLPGLTIWQIENFVPVLVEEAFHGKFYEADCYIVLKTFLDDSGSLNWEIYYWIGGEATLDKKACSAIHAVNLRNYLGAECRTVREEMGDESEEFLQVFDNDISYIEGGTASGFYTVEDTHYVTRMYRVYGKKNIKLEPVPLKGTSLDPRFVFLLDRGLDIYVWRGAQATLSSTTKARLFAEKINKNERKGKAEITLLVQGQELPEFWEALGGEPSEIKKHVPEDFWPPQPKLYKVGLGLGYLELPQINYKLSVEHKQRPKVELMPRMRLLQSLLDTRCVYILDCWSDVFIWLGRKSPRLVRAAALKLGQELCGMLHRPRHATVSRSLEGTEAQVFKAKFKNWDDVLTVDYTRNAEAVLQSPGLSGKVKRDAEKKDQMKADLTALFLPRQPPMSLAEAEQLMEEWNEDLDGMEGFVLEGKKFARLPEEEFGHFYTQDCYVFLCRYWVPVEYEEEEKKEDKEEKAEGKEGEEATAEAEEKQPEEDFQCIVYFWQGREASNMGWLTFTFSLQKKFESLFPGKLEVVRMTQQQENPKFLSHFKRKFIIHRGKRKAVQGAQQPSLYQIRTNGSALCTRCIQINTDSSLLNSEFCFILKVPFESEDNQGIVYAWVGRASDPDEAKLAEDILNTMFDTSYSKQVINEGEEPENFFWVGIGAQKPYDDDAEYMKHTRLFRCSNEKGYFAVTEKCSDFCQDDLADDDIMLLDNGQEVYMWVGTQTSQVEIKLSLKACQVYIQHMRSKEHERPRRLRLVRKGNEQHAFTRCFHAWSAFCKALA
B7: HNRNPA3 (protein, UniProt P51991 1-378, looked up)
Heterogeneous nuclear …: MEVKPPPGRPQPDSGRRRRRRGEEGHDPKEPEQLRKLFIGGLSFETTDDSLREHFEKWGTLTDCVVMRDPQTKRSRGFGFVTYSCVEEVDAAMCARPHKVDGRVVEPKRAVSREDSVKPGAHLTVKKIFVGGIKEDTEEYNLRDYFEKYGKIETIEVMEDRQSGKKRGFAFVTFDDHDTVDKIVVQKYHTINGHNCEVKKALSKQEMQSAGSQRGRGGGSGNFMGRGGNFGGGGGNFGRGGNFGGRGGYGGGGGGSRGSYGGGDGGYNGFGGDGGNYGGGPGYSSRGGYGGGGPGYGNQGGGYGGGGGYDGYNEGGNFGGGNYGGGGNYNDFGNYSGQQQSNYGPMKGGSFGGRSSGSPYGGGYGSGGGSGGYGSRRF
B8: DBN1 (protein, UniProt Q16643 2-649, looked up)
Drebrin: AGVSFSGHRLELLAAYEEVIREESAADWALYTYEDGSDDLKLAASGEGGLQELSGHFENQKVMYGFCSVKDSQAALPKYVLINWVGEDVPDARKCACASHVAKVAEFFQGVDVIVNASSVEDIDAGAIGQRLSNGLARLSSPVLHRLRLREDENAEPVGTTYQKTDAAVEMKRINREQFWEQAKKEEELRKEEERKKALDERLRFEQERMEQERQEQEERERRYREREQQIEEHRRKQQTLEAEEAKRRLKEQSIFGDHRDEEEETHMKKSESEVEEAAAIIAQRPDNPREFFKQQERVASASAGSCDVPSPFNHRPGSHLDSHRRMAPTPIPTRSPSDSSTASTPVAEQIERALDEVTSSQPPPLPPPPPPAQETQEPSPILDSEETRAAAPQAWAGPMEEPPQAQAPPRGPGSPAEDLMFMESAEQAVLAAPVEPATADATEIHDAADTIETDTATADTTVANNVPPAATSLIDLWPGNGEGASTLQGEPRAPTPPSGTEVTLAEVPLLDEVAPEPLLPAGEGCATLLNFDELPEPPATFCDPEEVEGESLAAPQTPTLPSALEELEQEQEPEPHLLTNGETTQKEGTQASEGYFSQSQEEEFAQSEELCAKAPPPVFYNKPPEIDITCWDADPVPEEEEGFEGGD
B9: SH3BP5L (protein, UniProt Q7L8J4 1-393, looked up)
SH3 domain-binding protein …: MAELRQVPGGRETPQGELRPEVVEDEVPRSPVAEEPGGGGSSSSEAKLSPREEEELDPRIQEELEHLNQASEEINQVELQLDEARTTYRRILQESARKLNTQGSHLGSCIEKARPYYEARRLAKEAQQETQKAALRYERAVSMHNAAREMVFVAEQGVMADKNRLDPTWQEMLNHATCKVNEAEEERLRGEREHQRVTRLCQQAEARVQALQKTLRRAIGKSRPYFELKAQFSQILEEHKAKVTELEQQVAQAKTRYSVALRNLEQISEQIHARRRGGLPPHPLGPRRSSPVGAEAGPEDMEDGDSGIEGAEGAGLEEGSSLGPGPAPDTDTLSLLSLRTVASDLQKCDSVEHLRGLSDHVSLDGQELGTRSGGRRGSDGGARGGRHQRSVSL

Legend:
[1] = system: GFP-14-3-3β and its binding proteins; test: GFP-14-3-3β co-IP with LC-MS/MS label-free quantification, untreated versus PP1c-treated; design: species or system human
GFP-14-3-3β = GFP-14-3-3β co-IP with LC-MS/MS, untreated GFP-14-3-3β versus GFP control (14-3-3 interactome); type: binding, human
[2] = PP1 vs untreated, LFQ intensities, replicates 1-3
[3] = untreated vs GFP, LFQ intensities, replicates 1-3

Molecule	Difference (log2), PP1 vs untreated [1, 2]	Difference (log2), untreated vs GFP (GFP-14-3-3β; [3])	Difference (log2), PP1 vs untreated ([1]; log2 difference, pairwise comparison PP1 vs untreated, label-free quantification, 3 replicates each)	Difference (log2), untreated vs GFP (GFP-14-3-3β; log2 difference, pairwise comparison untreated vs GFP, label-free quantification, 3 replicates each)
B1	-0.8521 log2	2.872 log2	–	–
B2	–	–	1.649	-2.259
B3	-0.8522 log2	1.906 log2	–	–
B4	-0.8796 log2	7.762 log2	–	–
B5	-0.8589 log2	2.987 log2	–	–
B6	-0.8907 log2	1.165 log2	–	–
B7	-0.8983 log2	1.1202 log2	–	–
B8	-0.9011 log2	-0.06481 log2	–	–
B9	-0.8873 log2	3.944 log2	–	–
